The assay deals with FLAG epitope tagged adenylyl cyclase 2 (rat).

Consider protein kinase C (enzyme), for which the 32P incorporated into purified F-AC2 after PMA treatment of the cells came out at 3 fold.

For the origin of these results see US6034071.
